From patent US11612667B2, “Enhanced in vivo targeting of radiolabelled peptides with the means of enzyme inhibitors” (Advanced Accelerator Applications USA, Inc., priority 2011, dated 2023)
Where two headings read alike, the source gives them in different places. Non-standard residues stand in square brackets, D forms with d. Residues, ends and D or L forms follow the SMILES beside them. *: point of attachment. DOTA = O=C(O)CN1CCN(CC(=O)O)CCN(CC(=O)*)CCN(CC(=O)O)CC1; Tle = CC(C)(C)[C@H](N)C(=O)O; X1 = NCCNCC(CNCCN)C(=O)*; Dab = NCC[C@H](N)C(=O)O; βAla = NCCC(=O)O

Assays:
[1] = mouse; cited from earlier work
WiDr tumors (hNTS1+) = assay: Biodistribution / tumor uptake in SCID mice bearing WiDr tumors (hNTS1+); conditions: SCID, mouse, in vivo, 4 h
Experimental: FIG. 4H: Biodistribution of [^99mTc]Demotensin 6 in SCID mice bearing WiDr tumors (hNTS1^+) at 4 h pi. Bars represent average uptake as mean % injected dose per gram (% ID/g) of at least 4 animals with standard deviation (control at 4 h 2nd bars); three additional groups of animals received either excess NT(1-13) and PA (100 μg blocker and 300 μg PA—first bars), or PA (300 μg PA—3rd bars) or PA and Lis (300 μg PA+250 μg Lis—4th bars). Bl=blood, Li=liver, He=heart, Ki=kidneys, St=stomach, In=intestines, Sp=spleen, Mu=muscle, Lu=lungs, Pa=pancreas, Fe=femur and Tu=WiDr tumor.
FIG. 5H: Biodistribution of [^99mTc]Demotensin 1 in SCID mice bearing WiDr tumors (hNTS1+) at 4 h pi. Bars represent average uptake as mean % injected dose per gram (% ID/g) of at least 4 animals with standard deviation (control at 4 h 2nd bars); three additional groups of animals received either excess NT and PA (100 μg and 300 μg PA, respectively—first bars), or PA (300 μg PA—3rd bars) or PA and Lis (300 μg PA+300 μg Lis—4th bars). Bl=blood, Li=liver, He=heart, Ki=kidneys, St=stomach, In=intestines, Sp=spleen, Mu=muscle, Lu=lungs, Pa=pancreas, Fe=femur and Tu=WiDr tumor.
In FIG. 4B the effects of such regimens on SCID mice bearing the human colon adenocarcinoma WiDr tumor (a hNTS1R^+ tumor) on enhancing in vivo tumor targeting are presented.
In FIG. 5B the effects of above regimens on SCID mice bearing WiDr tumors (hNTS1R^+) on enhancing in vivo tumor targeting are shown.

[2] = human; cited from earlier work
[3] = design: species or system Swiss albino mice; conditions: mouse, in vivo, 5 min
Experimental: Whole blood was collected 5 min postinjection (pi), blood cells were removed and major proteins were precipitated and then the supernatant was analyzed by RP-HPLC coupled to a gamma detector.
Alternatively, the dual NEP and ACE inhibitor racecadotril (race; 2.5 mg) was ip injected 45-60 min prior to radioligand injection and the same procedure was followed as described above.
To test the in vivo stability, ^111In-DOTA-MG11 was injected in the tail vein of Swiss albino mice and 5 min afterwards blood was collected, blood cells were removed and major proteins were precipitated and then the supernatant was analyzed by RP-HPLC coupled to a gamma detector. As shown in the radiochromatogram of FIG. 3A, the major part of ^111In-DOTA-MG11 was consumed during this period (<5% intact peptide still detected), in agreement with previous reports. Further, ^111In-DOTA-MG11 was co-injected together with PA or injected 1 h after ip injection of race (2.5 mg) in more mice and the same protocol was followed as above. Amazingly, the percentage of ^111In-DOTA-MG11 found intact in the blood of the PA-treated mice was raised from <5% to 75% and in the race-pretreated mice to 73%.
For ex vivo blood analysis, [^99mTc]Demotensin 6 was injected in the tail vein of Swiss albino mice and blood collected 5 min thereafter was analyzed as previously described. The effect of PA on stability was studied by co-injection of PA along with [^99mTc]Demotensin 6. Furthermore, a PA dose study was performed with the PA injected dose ranging from 300 μg down to 0.03 μg and results are summarized in FIG. 4A.
Additional groups of radiopeptides with relevance for nuclear medicine applications have been studied for their in vivo stability. Radiopeptides were injected in the tail vein of healthy mice, either alone, or with a NEP inhibitor (PA—300 μg), or with a NEP (PA—300 μg) and an ACE (Lis—300 μg) inhibitor mixture; alternatively, another NEP inhibitor prodrug (race—2.5 mg) was ip injected in the animals ˜45 min prior to radioligand injection. Blood was collected 5 min afterwards, and analyzed by RP-HPLC after suitable preparation, as previously described.

NEP = NEP (Homo sapiens, UniProt P08473); conditions: reversible competitive inhibitor; cited from earlier work
NEP, sequence (P08473 whole entry): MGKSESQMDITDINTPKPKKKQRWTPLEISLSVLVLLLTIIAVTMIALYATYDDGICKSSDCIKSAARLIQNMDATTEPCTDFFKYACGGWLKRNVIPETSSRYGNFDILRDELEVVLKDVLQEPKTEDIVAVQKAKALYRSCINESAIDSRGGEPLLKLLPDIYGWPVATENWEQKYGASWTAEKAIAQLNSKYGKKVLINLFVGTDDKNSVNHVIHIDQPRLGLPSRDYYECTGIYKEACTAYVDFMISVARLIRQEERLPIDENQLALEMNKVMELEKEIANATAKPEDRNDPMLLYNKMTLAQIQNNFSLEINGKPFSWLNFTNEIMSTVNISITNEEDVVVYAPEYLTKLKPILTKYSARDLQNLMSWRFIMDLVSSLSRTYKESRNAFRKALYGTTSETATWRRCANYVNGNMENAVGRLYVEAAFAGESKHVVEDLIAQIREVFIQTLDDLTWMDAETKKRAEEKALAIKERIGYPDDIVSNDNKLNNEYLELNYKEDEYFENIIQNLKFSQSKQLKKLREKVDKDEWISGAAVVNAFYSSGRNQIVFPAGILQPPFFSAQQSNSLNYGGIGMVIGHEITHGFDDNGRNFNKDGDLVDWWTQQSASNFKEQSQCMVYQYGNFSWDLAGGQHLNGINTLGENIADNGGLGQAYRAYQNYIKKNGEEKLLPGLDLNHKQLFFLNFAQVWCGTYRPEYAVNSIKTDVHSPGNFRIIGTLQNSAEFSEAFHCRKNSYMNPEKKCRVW

AR4-2J tumors (rCCK2R+) = tested on: AR4-2J tumors (rCCK2R+); design: species or system SCID mice; conditions: mouse, in vivo
Experimental: FIG. 3D: Biodistribution of ^111In-DOTA-MG11 in SCID mice bearing AR4-2J tumors (rCCK2R^+) at 4 h pi.
Biodistribution results in SCID mice bearing rCCK2R^+ AR4-2J tumors 4 h after injection of ^111In-DOTA-MG11 alone or together with PA or 1 h after ip injection of race are shown in FIG. 3B.

AR4-2J tumors (rsst2+) = tested on: AR4-2J tumors (rsst2+); design: species or system SCID mice; conditions: SCID, mouse, in vivo, 4 h
Experimental: FIG. 1D: Biodistribution of [(^111In-DOTA)Ala^1]Somatostatin-14 in SCID mice bearing AR4-2J tumors (rsst2^+) at 4 h pi.
FIG. 2C: Biodistribution of [(^111In-DOTA)Ala^1, DTrp^8]Somatostatin-14 in SCID mice bearing AR4-2J tumors (rsst2^+) at 4 h pi.
Of great importance is the direct translation of PA-(or race) induced radiopeptide stabilization into meaningful and dramatic increase of tumor uptake in animals. Indeed, uptake in the rsst2^+ AR4-2J tumor after injection of ^111In[(DOTA)Ala^1]SS14 reached 13.87±2.4% ID/g in the PA-treated group at 4 h pi vs. 0.67±0.1% ID/g in the non-treated controls, while in the race pre-treated mice tumor values reached 3.51±0.2% ID/g, as presented in FIG. 1B. The corresponding values for the DTrp^8-analog, shown in FIG. 2B, reach 9.06±3.57% ID/g (PA group), 4.18±2.28% ID/g (race group) and 1.82±0.36% ID/g (non-treated controls).

With `CC(C)C[C@H](NC(=O)[C@@H](NC(=O)[C@H](Cc1ccc(O)cc1)NC(=O)[C@@H]1CCCN1C(=O)[C@H](CCN)NC(=O)[C@H](CCCNC(=N)N)NC(=O)CCNC(=O)C(CNCCN)CNCCN)C(C)(C)C)C(=O)O` [[^99mTc]Demotensin 6, ^99mTc-N4-βAla-Arg-Dab-Pro-Tyr-Tle-Leu-OH, metal not drawn] ({X1-βAla}-R[Dab]PY[Tle]L-OH) as the compound, how does the “in vitro stability in plasma” value [1] read?
Its value is “stable”.

What about the “uptake in WiDr tumor” value (WiDr tumors (hNTS1+)) of the same compound?
Its value is 1.61±0.42 % ID/g.

And the “in vitro stability in plasma” value [2]?
Its value is “stable”.

What about the “percentage of parent peptide remaining intact” value [3] of the same compound?
The value was 52%.

Which IC50 (NEP) does the source give for `CC(C)C[C@H](NP(=O)(O)O[C@@H]1O[C@@H](C)[C@H](O)[C@@H](O)[C@H]1O)C(=O)N[C@@H](Cc1c[nH]c2ccccc12)C(=O)O` [Phosphoramidon, phosphoramidon] here?
The IC50 was 34 nM.

With `CSCC[C@H](NC(=O)[C@H](Cc1c[nH]c2ccccc12)NC(=O)CNC(=O)[C@H](Cc1ccc(O)cc1)NC(=O)[C@H](C)NC(=O)[C@@H](CCC(=O)O)NC(=O)CN1CCN(CC(=O)O)CCN(CC(=O)O)CCN(CC(=O)O)CC1)C(=O)N[C@@H](CC(=O)O)C(=O)N[C@@H](Cc1ccccc1)C(N)=O` [^111In-DOTA-MG11, [(^111In-DOTA)DGlu^10]Minigastrin(10-17), metal not drawn] ({DOTA}-[dE]AYGWMDF-NH2) as the compound, how does the “uptake in AR4-2J tumor” value (AR4-2J tumors (rCCK2R+); SCID, 4 h) read?
The value was 1.22±0.06 % ID/g.

And the “increase in the tumor by PA administration” value (AR4-2J tumors (rCCK2R+))?
Its value is greater than 9 fold.

What about the “percentage of parent peptide remaining intact” value [3] of the same compound?
Its value is less than 5%.

With `C[C@H](NC(=O)CN1CCN(CC(=O)O)CCN(CC(=O)O)CCN(CC(=O)O)CC1)C(=O)NCC(=O)N[C@H]1CSSC[C@@H](C(=O)O)NC(=O)[C@H](CO)NC(=O)[C@H]([C@@H](C)O)NC(=O)[C@H](Cc2ccccc2)NC(=O)[C@H]([C@@H](C)O)NC(=O)[C@H](CCCCN)NC(=O)[C@H](Cc2c[nH]c3ccccc23)NC(=O)[C@H](Cc2ccccc2)NC(=O)[C@H](Cc2ccccc2)NC(=O)[C@H](CC(N)=O)NC(=O)[C@H](CCCCN)NC1=O` [[(^111In-DOTA)Ala^1]Somatostatin-14, metal not drawn] as the compound, how does the “uptake in AR4-2J tumor” value (AR4-2J tumors (rsst2+)) read?
The value was 0.67±0.1 % ID/g.
